The values that follow come from patent publication US20050208021.

Data set [1] deals with T1, PhiC31 integrase mutant 1C1 (Bacteriophage Phi-C31).
T1 sequence: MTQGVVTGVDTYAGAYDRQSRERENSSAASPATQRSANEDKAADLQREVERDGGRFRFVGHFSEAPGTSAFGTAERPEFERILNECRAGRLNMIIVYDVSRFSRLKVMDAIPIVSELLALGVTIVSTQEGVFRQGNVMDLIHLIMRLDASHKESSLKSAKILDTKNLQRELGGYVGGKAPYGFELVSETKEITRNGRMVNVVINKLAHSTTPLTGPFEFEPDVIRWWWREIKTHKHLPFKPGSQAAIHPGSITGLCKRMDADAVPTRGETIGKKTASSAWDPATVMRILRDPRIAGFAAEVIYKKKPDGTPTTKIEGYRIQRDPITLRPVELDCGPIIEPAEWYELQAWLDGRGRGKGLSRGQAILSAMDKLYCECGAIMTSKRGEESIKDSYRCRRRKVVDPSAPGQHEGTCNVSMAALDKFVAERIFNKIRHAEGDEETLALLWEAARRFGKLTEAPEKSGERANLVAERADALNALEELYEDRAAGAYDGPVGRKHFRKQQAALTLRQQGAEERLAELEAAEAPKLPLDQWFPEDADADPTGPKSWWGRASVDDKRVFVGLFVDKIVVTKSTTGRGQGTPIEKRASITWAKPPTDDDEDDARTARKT
The data set can be described thus: cell_activity. The settings on record: attB donor integration into 293 genome.

In data set [2] the test system is T2, PhiC31 integrase wild type (Bacteriophage Phi-C31).
T2 sequence: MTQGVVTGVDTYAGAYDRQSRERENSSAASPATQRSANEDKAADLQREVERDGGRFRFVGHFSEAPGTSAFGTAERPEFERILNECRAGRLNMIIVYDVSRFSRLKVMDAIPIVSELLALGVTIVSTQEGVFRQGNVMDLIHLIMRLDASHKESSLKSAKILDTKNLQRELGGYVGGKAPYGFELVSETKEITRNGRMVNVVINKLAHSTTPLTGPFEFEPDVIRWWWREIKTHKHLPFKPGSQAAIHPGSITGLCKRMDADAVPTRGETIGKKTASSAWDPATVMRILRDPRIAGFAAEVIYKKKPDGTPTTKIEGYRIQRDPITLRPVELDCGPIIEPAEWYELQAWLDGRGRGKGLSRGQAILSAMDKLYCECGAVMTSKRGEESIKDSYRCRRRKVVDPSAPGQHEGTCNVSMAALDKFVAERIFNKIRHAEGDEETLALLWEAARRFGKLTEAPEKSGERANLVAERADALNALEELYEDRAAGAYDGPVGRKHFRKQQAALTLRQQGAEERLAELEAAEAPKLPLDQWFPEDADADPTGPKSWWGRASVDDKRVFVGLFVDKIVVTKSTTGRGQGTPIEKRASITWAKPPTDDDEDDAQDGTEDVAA
Put plainly: cell_activity.

In data set [1], “CGATGTAGGTCACGGTCTCGAAGCCGCGGTGCGGGTGCCAGGGCGTGCCCTTGGGCTCCCCGGGCGCGTACTCCACCTCACCCATCTGGTCCATCATGATGAACGGGTCGAGGTGGCGGTAGTTGATCCCGGCGAACGCGCGGCGCACCGGGAAGCCCTCGCCCTCGAAACCGCTGGGCGCGGTGGTCACGGTGAGCACGGGACGTGCGACGGCGTCGGCGGGTGCGGATACGCGGGGCAGCGTCAGCGGGTTCTCGACGGTCACGGCGGGCATGTCGA (double strand) [PhiC31 attB full length]” came in with an activity (fold over background colonies) of more than 10. Turning to PhiC31 attB/attP in pBCPB+, the activity (% white colonies) in data set [2] (Drosophila S2 cells, +/-11.7, background 1.7) amounted to 47.8.

In data set [2] (mouse liver, partner attB, qPCR, +/-0.89), mouse pseudo attP mpsL1 registered an activity (% haploid genomes integrated) of 1.8.
